Data taken from patent US20100015637A1 (AbbVie / Abbott, published 2010).

What was measured:
[1] = target: human PlGF-1 comprising amino acids 1-137 produced in human embryonic kidney cells (human) (UniProt P49763); test: Format 2 …, capture MAb264, detection Pb264; sFlt-1 920 pmol/L (ratio 30)
[2] = target: human PlGF-1 comprising amino acids 1-137 produced in human embryonic kidney cells (human) (UniProt P49763); test: Format 1 …, capture 2-826-335, detection 1-255-713; sFlt-1 153 pmol/L (ratio 5)
[3] = target: human PlGF-1 comprising amino acids 1-137 produced in human embryonic kidney cells (human) (UniProt P49763); test: Format 1 …, capture 2-826-335, detection 1-255-713; sFlt-1 1533 pmol/L (ratio 50)
[4] = target: human PlGF-1 comprising amino acids 1-137 produced in human embryonic kidney cells (human) (UniProt P49763); test: Format 1 …, capture 2-826-335, detection 1-255-713; sFlt-1 9200 pmol/L (ratio 300)
[5] = target: human PlGF-1 comprising amino acids 1-137 produced in human embryonic kidney cells (human) (UniProt P49763); test: Format 3 Quantikine ELISA, capture MAb264, detection Pb264; sFlt-1 2300 pmol/L (ratio 75)
[6] = target: recombinant human PlGF-1 (comprising amino acids 1-131) expressed in E. coli (R&D Systems) (human) (UniProt P49763); test: … sandwich, capture MAb826, detection pAb264; antigen 60 pg/mL
[7] = target: recombinant human PlGF-1 (comprising amino acids 1-131) expressed in E. coli (R&D Systems) (human) (UniProt P49763); test: … sandwich, capture MAb826, detection pAb264; antigen 0 pg/mL (blank)
[8] = target: T1, human PlGF-1 fragment (comprising amino acids 17-131) produced in human embryonic kidney cells (human, UniProt P49763 35-221); test: … sandwich, capture MAb826, detection pAb264; antigen 15 pg/mL
T1 sequence: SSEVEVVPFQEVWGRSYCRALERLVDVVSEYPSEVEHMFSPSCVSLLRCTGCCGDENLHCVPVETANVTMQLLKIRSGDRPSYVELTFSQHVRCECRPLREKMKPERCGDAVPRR

[9] = target: T2, CHO human PlGF-1 fragment (comprising amino acids 17-131; ATCC PTA-8540) (human, UniProt P49763 35-221); test: … sandwich, capture MAb826, detection pAb264; antigen 1500 pg/mL
T2 sequence: T1 sequence

[10] = target: T3, CHO human PlGF-1 comprising amino acids 1-137 (human PlGF-1-His (1-131), CHO 6305) (human, UniProt P49763 19-221, N-glycans at N21 (completely glycosylated) and N89 (partially glycosylated)); test: as above
T3 construct: Mature human PlGF-1 with 6xHis tag (137 amino acids); also called CHO (1-137)
T3 sequence: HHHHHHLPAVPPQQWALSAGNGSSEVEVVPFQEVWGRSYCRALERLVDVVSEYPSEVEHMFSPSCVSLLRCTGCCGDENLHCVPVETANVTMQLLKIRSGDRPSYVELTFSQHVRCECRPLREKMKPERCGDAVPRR

[11] = target: T4, human PlGF-1 comprising amino acids 1-137 produced in human embryonic kidney cells (human, UniProt P49763 19-221); test: as above
T4 construct: Mature human PlGF-1 with 6xHis tag; also called HEK (1-137); full length HEK human PlGF-1 (1-137)
T4 sequence: T3 sequence

[12] = target: T1, human PlGF-1 fragment (comprising amino …); test: as above
[13] = target: recombinant human PlGF-1 (comprising amino acids 1-131) expressed in E. coli (R&D Systems) (human) (UniProt P49763); test: … sandwich, capture MAb255, detection MAb826; antigen 15 pg/mL
[14] = target: recombinant human PlGF-1 (comprising amino acids 1-131) expressed in E. coli (R&D Systems) (human) (UniProt P49763); test: … sandwich, capture MAb255, detection MAb826; antigen 1500 pg/mL
[15] = target: recombinant human PlGF-1 (comprising amino acids 1-131) expressed in E. coli (R&D Systems) (human) (UniProt P49763); test: … sandwich, capture MAb255, detection pAb264; antigen 0 pg/mL (blank)
[16] = target: T2, CHO human PlGF-1 fragment (comprising …); test: … sandwich, capture MAb255, detection MAb826; antigen 1500 pg/mL
Summary of the method: (§1)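 Human PlGF-1 antigen preparations, including recombinant forms expressed in CHO cells, were tested at 0 to 1500 pg/mL in a sandwich immunoassay. The capture antibody was a monoclonal anti-human PlGF-1 antibody immobilized on magnetic microparticles by passive coating and EDAC cross-linking. Detection used an acridinium ester-labeled monoclonal anti-human PlGF-1 antibody. Signal was recorded as chemiluminescent relative light units (RLU) at each antigen level.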

[17] = target: T3, CHO human PlGF-1 comprising amino acids …; test: as above
Summary of the method: as §1

[18] = target: T4, human PlGF-1 comprising amino acids …; test: as above
Summary of the method: as §1

[19] = target: T1, human PlGF-1 fragment (comprising amino …); test: as above
Summary of the method: as §1

native sFlt-1, isolated from human placental tissue (from UniProt P17948 27-687) (receptor)
% Inhibition [1]: 91.3%
PlGF-1 Measured [1]: 68.2 pg/mL
% Inhibition [2]: 64.1%
PlGF-1 Measured [2]: 367 pg/mL
% Inhibition [3]: 92.5%
PlGF-1 Measured [3]: 76.6 pg/mL
% Inhibition [4]: 95.9%
PlGF-1 Measured [4]: 42.1 pg/mL
% Inhibition [5]: 75.9%
PlGF-1 Measured [5]: 209 pg/mL

B1: monoclonal antibody 2-826-335 (produced by murine hybridoma cell line 2-826-335, ATCC PTA-8539) (antibody, mouse IgG1, V domains shown)
VH: QVQLKQSGPGLVQPSQSLSITCTVSGFSLTTYGIHWVRQSPGKGLEWLGVMWSGGDTDYDAAFISRLSISKDNSKSQVFFKMNSLQANDTGIYYCARYRFYGMDYWGQGTSVTVSS
VL: AIQMTQSSSSFSVSLGDRVTITCKASEDIYNRFAWYQQKPGNAPRLLISGAASLEAGVPSRFSGSGSGQDYTLSITSLQTEDVATYYCQQYWSTPWTFGGGTKLEIKR
notes: also called MAb826
RLU [6]: 65500 RLU
RLU [7]: 6410 RLU
RLU [8]: 12800 RLU
RLU [9]: 456000 RLU
RLU [10]: 329000 RLU
RLU [11]: 760000 RLU
RLU [12]: 624000 RLU

B2: monoclonal antibody 1-255-713 (produced by murine hybridoma cell line 1-255-713, ATCC PTA-8536) (antibody, mouse IgG2a, V domains shown)
VH: QVHLQQSGAELMKPGASVKISCKATGYTFSSYWIEWVKQRPGHGLEWIGEILPGSVSNNFNEKFKDKATLTADPSSNTAYIQVSSLTSEDSAVYYCARSTGFYYGGNYFDHWGQGTTLAVSS
VL: DVVMTQTPLSLPVSPGDQASISCRSSQSLVHSNGHTYLHWYLQKPGQSPKLLIYKVSNRFSGVPDRVSGSGSGTDFTLKISRVEAEDLGVYFCSQSTHVPPTFGGGTKLEIKR
notes: also called MAb255
RLU [13]: 22700 RLU
RLU [14]: 1.35e+06 RLU
RLU [15]: 14300 RLU
RLU [16]: 750000 RLU
RLU [17]: 734000 RLU
RLU [18]: 1.52e+06 RLU
RLU [19]: 1.04e+06 RLU
